In one assay the target is T1, human IL-8 (human, UniProt P10145 28-99, limits assumed).
T1 construct: also called hIL8
The assay is described as follows: ELISA, purified mAb. On the procedure:
(§1) ELISA specificity assays were performed using purified monoclonal antibodies to confirm the binding specificities of the supernatant MCP-specific monoclonal antibodies described above. Antibodies were purified by Protein A affinity column chromatography, according to standard methods known in the art.
(§2) ELISA was performed as previously described in Example 1. Briefly, MaxiSorp 384 well plates were coated with 15-20 μl antigen in PBS. Recombinant purified human antigens included: MCP-1, MCP-2, MCP-3, MCP-4, IL-8, eotaxin, murine MCP-1 (JE), murine MCP-3, murine MCP-5, and rat MCP-1. All antigens, including MCP-3, were immobilized. Plates were washed and purified monoclonal antibody (10 μg/ml) was added to each well and incubated for 1 hour at room temperature. Plates were washed and wells were incubated with 20 μl/well of a 1:25,000 dilution of goat anti-mouse IgG peroxidase conjugate (Jackson Catalog Number 515-036-003). Plates were incubated for 1 hour at room temperature, washed, and 20 μl/well of substrate (, tetramethylbenzidine, Jackson, Catalog Number 515-036-062) was added. Reaction was allowed to proceed and stopped by addition of 20 μl/well of 2M H₂SO₄. Antibodies 1A1 bound specifically to hMCP-1, hMCP-2, hMCP-3, and mMCP-1. Antibodies 11K2, 4N4, 5A13, 6D21, 615, and 7H1 bound specifically to hMCP-1, hMCP-2, hMCP-3, mMCP-1, mMCP-3, and mMCP-5.
On the technique in general: In an ELISA, binding on a coated surface is turned into a signal by an enzyme label.

In the next assay the target is T2, human eotaxin (human, UniProt P51671 24-97).
T2 construct: also called hEotaxin
Description: ELISA, purified mAb. The protocol:
as §1, §2

The target in a further assay is T3, human MCP-4 (human, UniProt Q99616 24-98, limits assumed).
T3 construct: also called hMCP-4
Description: ELISA, purified mAb. On the procedure:
as §1, §2

Assay [1] has as its target T4, human MCP-1 (human, UniProt P13500 24-99).
T4 construct: also called hMCP-1; huMCP-1
Description: KinExA, in solution. On the procedure: (§3) Polymethylmethacrylate beads activated with NHS were coated with 10 μg recombinant human MCP-1 in 1 ml buffer. The beads were packed into a column in the KinExA instrument for each sample. This packed bead column is able to capture free MCP mAb or Fab flowed through the column. The amount of free mAb or Fab in solution was determined using a secondary goat anti-mouse heavy and light chain IgG-Cy5 conjugate.
(§4) A fixed amount of 11K2 mAb, 1A1 mAb, 11K2 Fab, or 1A1 Fab was incubated with various amounts of human MCP-1, MCP-2 or MCP-3 for three hours. The amount of uncomplexed free antibody remaining in solution was determined by flowing these mixtures over the MCP-1-loaded bead column and labeling with the Cy5 secondary antibody. The fluorescent signal was plotted against the MCP concentration and the affinity was determined using a quadratic curve fit
In general terms: Kinetic exclusion samples the free partner from a solution-phase mixture.

A further assay has as its target human Gcp-2 (human, UniProt P80162 38-114, limits assumed). Description: ELISA, supernatant. On the procedure:
(§5) MaxiSorp 384 well plates were coated with 15-20 μl antigen in PBS. Recombinant purified human antigens included: MCP-1, MCP-2, MCP-3, MCP-4, IL-8, eotaxin, fractalkine, Gcp-2, DC-CK (Gcp-2 and DC-CK are also chemokines). Plates were incubated with antigen for 2 hours at 37° C. or overnight at 4° C. Non-specific sites were blocked with 80 μl/well of 1% BSA/PBS for 1 hour at room temperature. Plates were washed and 15 μl of hybridoma supernatant was added to each well and incubated for 1 hour at room temperature. Plates were washed and wells were incubated with 20 μl/well of a 1:25 000 dilution of goat anti-mouse IgG peroxidase conjugate (Jackson Catalog Number 515-036-003). Plates were incubated for 1 hour at room temperature, washed, and 20 μl/well of substrate (TMB, tetramethylbenzidine, Jackson, Catalog Number 515-036-062) was added. Reaction was allowed to proceed and stopped by addition of 20 μl/well of 2M H₂SO₄. Reactive clones were picked for further analysis. Isotyping of hybridoma supernatants was performed by antigen-dependent ELISA. Briefly, wells were coated with 50 μl of human MCP-1 (5 μg/ml) for 1 hour at 37° C. Wells were washed 4 times and blocked with PBS/1% BSA. Isotyping of hybridoma supernatants was then performed using a mouse immunoglobulin screening/isotyping kit (Zymed Laboratories, San Francisco, —CA) as recommended by the manufacturer.

The target in another assay is T5, human DC-CK (human, UniProt P55774 21-89).
T5 sequence (looked up): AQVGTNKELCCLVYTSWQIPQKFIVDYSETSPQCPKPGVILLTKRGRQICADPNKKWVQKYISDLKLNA
Description: ELISA, supernatant. On the procedure: as §5

A further assay concerns the target T6, human fractalkine (human, UniProt P78423 25-100, limits assumed).
T6 sequence (looked up): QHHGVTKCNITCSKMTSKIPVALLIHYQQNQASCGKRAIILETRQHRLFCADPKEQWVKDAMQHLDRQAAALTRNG
The assay is described as follows: ELISA, supernatant. The protocol:
as §5

Assay [2] addresses T7, human MCP-2 (human, UniProt P80075 24-99).
T7 construct: also called hMCP-2; huMCP-2
T7 sequence (looked up): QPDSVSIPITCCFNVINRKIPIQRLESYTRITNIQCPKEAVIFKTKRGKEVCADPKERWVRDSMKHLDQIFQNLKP
The assay is described as follows: KinExA, in solution; intact bivalent mAb, not Fab. On the procedure: as §3, §4

Assay [3] addresses T7, human MCP-2. The assay is described as follows: KinExA, in solution, Fab. On the procedure: (§6) 1 ml of MCP-1 at a concentration of 10 μg/ml in NaHCO₃ was added to an amount of beads equivalent to 1 ml of the original slurry. The beads were rocked overnight at 4° C. Beads were spun down and washed once with 1M Tris, pH 8.0, then resuspended in 1M Tris pH 8.0 with 1% BSA, 0.02% azide. The beads were rocked at room temperature for one hour then stored at 4° C. in this buffer for the duration of the experiments.
(§7) The KinExA 3000 measures protein-protein interaction in solution, and is ideally suited for measuring affinities of antibodies to antigens. In the typical experiment, antigen (MCP) is immobilized on a bead, antibody is flowed over a column of these beads at a given concentration, and the antibody that binds to the beads is detected using a fluorescent secondary. Antibody at a fixed concentration is then incubated with different concentrations of antigen in solution and the amount of free antibody is measured by flowing the mixture over the bead column quickly enough that no re-equilibration occurs between solution and solid phase. The amount of antibody remaining free is plotted against the concentration of antigen added and the data are fit to a quadratic equation to determine the affinity of the interaction in solution.
(§8) In these experiments, the only difference to the typical experiment described above is that instead of using intact antibody, a Fab fragment of 11K2 was used. Earlier KimExA experiments using the intact murine 11K2 mAb binding to MCP-1 and MCP-2 gave biphasic curves that the software could not interpret. This may be due to these proteins acting as dimers, so to eliminate the dimer/dimer interaction we generated Fab fragments. The binding of the 11K2 Fab fragments to MCP-1 and MCP-2 produced curves that the KinExA software could fit.

The target of assay [4] is T4, human MCP-1. Description: KinExA, in solution, Fab. The protocol:
as §6, §7, §8

The target of assay [5] is T7, human MCP-2. The assay is described as follows: KinExA, in solution; Fab, not intact mAb.
The target in another assay is T8, human MCP-3 (human, UniProt P80098 24-99).
T8 construct: also called hMCP-3
Description: ELISA.

The target in assay [6] is T4, human MCP-1. The assay is described as follows: ELISA on plate-coated human MCP-1, anti-human IgG-HRP; y axis unlabelled, OD 405 nm per paragraph 382. The protocol:
(§9) Binding specificities of chimeric 11K2 and the four versions of humanized 11K2 (H1-L1, H1-L2, H2-L1, and H2-L2) were determined by ELISA, according to the protocol described in Example 1.
(§10) ELISA plates (Corning, Inc. Cat#3369) were coated with 50 ng MCP-1 per well overnight at 4° C. Plates were washed then blocked with PBS/5% milk for 1.5 hrs at 25° C. Another wash was followed by incubation with the 11K2 mAbs (or 3G9 isotype control) at the concentrations indicated for 1 hr at 25° C. After washing, the plates were incubated with secondary antibody (anti-human IgG-HRP, Jackson Immunoresearch Cat#109-036-088) for 1 hr at 25° C. Plates were then washed and developed using the ABTS Peroxidase Substrate Kit (Vector Laboratories Cat#SK-4500). OD (405 nm) values were plotted as a function of 11K2 mAb concentration.

The next assay addresses T9, murine MCP-1 (JE) (mouse, UniProt P10148 24-148).
T9 construct: also called mMCP-1 (JE); muMCP-1
The assay is described as follows: ELISA on plate-coated murine MCP-1, anti-human IgG-HRP; y axis unlabelled, OD 405 nm per paragraph 382. The protocol:
as §9, §10

Assay [7] addresses T7, human MCP-2. The assay is described as follows: ELISA on immobilised MCP-2, absorbance 450 nm.
For assay [8], the target named is T7, human MCP-2. The assay is described as follows: KinExA, in solution. On the procedure:
as §3, §4

Numbering of substitutions follows the chain as printed.

B1: mouse monoclonal antibody 1A1 (antibody, V domains shown)
VH: EVQLQQSGAELVRSGASVKLSCTASGFNIKDNYMHWVKQRPEQGLEWIGWIDPENGDTEYAPKFQGKATMTADTSSNTAYLQLSSLTSEDTAVYYCNTWAYYGTSYGGFAYWGQGTTVTVSS
VL: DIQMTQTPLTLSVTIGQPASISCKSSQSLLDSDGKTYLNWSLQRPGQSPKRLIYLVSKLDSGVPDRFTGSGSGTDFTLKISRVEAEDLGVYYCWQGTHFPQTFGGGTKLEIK
notes: mouse IgG1; also called 1A1.1; mu1A1
Consider B1, for which the binding result with human IL-8 is “no binding (tested: 10 µg/ml)”; with human eotaxin it was “no binding (tested: 10 µg/ml)”; with human MCP-4, “no binding (tested: 10 µg/ml)”; in the assay with human Gcp-2, “no binding”; in the assay with human DC-CK it was “no binding”; with human fractalkine, “no binding”. Also, the results for the Kd in the assay with human MCP-1 [1] and with human MCP-2 [2] were below 0.0007 nM and 0.0012 nM, respectively.

B2: Fab fragment of murine 1A1 (Fab, V domains shown)
VH: B1 VH
VL: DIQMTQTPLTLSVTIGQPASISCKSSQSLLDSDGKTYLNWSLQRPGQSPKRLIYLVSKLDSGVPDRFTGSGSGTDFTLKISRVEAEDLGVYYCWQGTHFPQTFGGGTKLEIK
notes: also called 1A1 Fab
Regarding B2, the Kd with human MCP-2 [3] came to 0.32 nM; in the assay with human MCP-1 [4], 0.0129 nM; with human MCP-1 [1] it was 0.013 nM; with human MCP-2 [5], 0.32 nM.

B3: humanized 11K2 H1-L1 (antibody, human IgG1, kappa, V domains shown)
VH: QVQLVQSGAEVKKPGSSVKVSCKASGLNIKDTYMHWVRQAPGQGLEWIGRIDPANGNTKFDPKFQGRATITADTSTSTAYMELSSLRSEDTAVYYCARGVFGFFDYWGQGTTVTVSS
VL: DIQMTQSPSSLSASVGDRVTITCKATEDIYNRLAWYQQKPGKAPKLLISGATSLETGVPSRFSGSGSGKDYTLTISSLQPEDFATYYCQQFWSAPYTFGGGTKVEIKR
notes: human IgG1 kappa; also called hu11K2
Broadly, the EC50 (read off the curve) is the concentration giving half of the maximal effect. A higher EC50 (read off the curve) goes with weaker potency. On to B3, for which the values for the binding result with human MCP-3 and in the assay with murine MCP-1 (JE) were “no binding” and “binds”, respectively. In addition, the “EC50 (read off the curve)” value with human MCP-1 [6] is around 0.02 µg/mL; in the assay with human MCP-2 [7], around 0.3 µg/mL.

B4: humanized 11K2 H2-L1 (antibody, human IgG1, kappa, V domains shown)
VH: B3 VH with N28T, K30S, I48M, A68V
VL: B3 VL
notes: human IgG1 kappa
As for B4, the figures for the binding result with human MCP-3 and with murine MCP-1 (JE) were “no binding” and “binds”, respectively. Moreover, the “EC50 (read off the curve)” value with human MCP-1 [6] is around 0.02 µg/mL; with human MCP-2 [7], around 0.2 µg/mL.

B5: humanized 11K2 H2-L2 (antibody, human IgG1, V domains shown)
VH: B3 VH with N28T, K30S, I48M, A68V
VL: B3 VL with K69T
notes: human IgG1 kappa
In the case of B5, in the assay with human MCP-3, the binding result is on record as “no binding”. Further, the “EC50 (read off the curve)” value with human MCP-1 [6] was around 0.02 µg/mL; in the assay with human MCP-2 [7] it was around 0.3 µg/mL.

B6: chimeric 11K2 antibody (antibody, human IgG1, kappa, V domains shown)
VH: EVQLQQSGAELVKAGASVKLSCPASGLNIKDTYMHWVKQRPEQGLEWIGRIDPANGNTKFDPKFQGKATITADTSSNTAYLQLSSLTSEDTAVYYCARGVFGFFDYWGQGTTLTVSS
VL: DIQMTQSSSSFSVSLGDRVTITCKATEDIYNRLAWYQQKPGSAPRLLISGATSLETGVPSRFSGSGSGKDYTLSITSLQTEDVATYYCQQFWSAPYTFGGGTKLEIKR
notes: murine 11K2 variable domains with human IgG1 and kappa constant regions; also called Chimera; ch11K2
As for B6, the concentration for a half-maximal effect (EC50 (read off the curve)) with human MCP-1 [6] and with murine MCP-1 (JE) was around 0.02 µg/mL in each case.

B7: mouse monoclonal antibody 11K2 (antibody, V domains shown)
VH: B6 VH
VL: DIQMTQSSSSFSVSLGDRVTITCKATEDIYNRLAWYQQKPGSAPRLLISGATSLETGVPSRFSGSGSGKDYTLSITSLQTEDVATYYCQQFWSAPYTFGGGTKLEIK
notes: mouse IgG1; also called 11K2.1; mu11K2
Consider B7, for which the binding result is “no binding (tested: 10 µg/ml)” with human IL-8; “no binding (tested: 10 µg/ml)” with human eotaxin; “no binding (tested: 10 µg/ml)” in the assay with human MCP-4; “no binding” with human Gcp-2; “no binding” with human DC-CK; “no binding” with human fractalkine. Besides, the Kd was 0.018 nM with human MCP-2 [8] and below 0.0004 nM in the assay with human MCP-1 [1].

The values are drawn from US20070134236A1 (Biogen, published 2007).
